Reference: patent US20230338526A1 (BIO THERA SOLUTIONS, published 2023)

What was measured:
CD20 [1] = target: T1, CD20 (human, UniProt P11836 1-297); test: cell-based or functional assay
T1 sequence (looked up): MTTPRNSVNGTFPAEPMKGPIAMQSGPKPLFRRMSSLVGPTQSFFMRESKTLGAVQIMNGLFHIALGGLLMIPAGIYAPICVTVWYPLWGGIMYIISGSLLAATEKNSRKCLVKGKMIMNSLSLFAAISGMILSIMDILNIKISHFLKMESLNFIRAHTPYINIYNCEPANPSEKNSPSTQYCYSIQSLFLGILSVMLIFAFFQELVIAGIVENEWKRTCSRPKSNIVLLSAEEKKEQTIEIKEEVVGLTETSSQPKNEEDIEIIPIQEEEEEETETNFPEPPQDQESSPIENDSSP

CD20 [2] = target: T1, CD20; test: cell-based or functional assay; remark: listed apart in the source
CD20 [3] = target: T1, CD20; test: binding to CD20+ cells; method and cell line not stated

B1: Rituximab (antibody, V domains shown)
VH: QVQLQQPGAELVKPGASVKMSCKASGYTFTSYNMHWVKQTPGRGLEWIGAIYPGNGDTSYNQKFKGKATLTADKSSSTAYMQLSSLTSEDSAVYYCARSTYYGGDWYFNVWGAGTTVTVSA
VL: QIVLSQSPAILSASPGEKVTMTCRASSSVSYIHWFQQKPGSSPKPWIYATSNLASGVPVRFSGSGSGTSYSLTISRVEAEDAATYYCQQWTSNPPTFGGGTKLEIK
- Percentage of whole blood B-cell depletion in vitro, 10 ng/ml (CD20 [1]): 17.8%
- Percentage of whole blood B-cell depletion in vitro, 50 ng/ml (CD20 [1]): 36%
- ADCC, PBMC method (CD20 [2]): 0.0496 nM
- ADCC, Reporter gene assay method (CD20 [2]): 0.019 nM
- Binding to CD 20^+ cells (CD20 [3]): 10.2 nM
